# Reference: paper PMC3424535
# T1: McrB-N (N-terminal DNA-binding domain of McrB) (Escherichia coli, UniProt P15005 1-161)
# T1 sequence: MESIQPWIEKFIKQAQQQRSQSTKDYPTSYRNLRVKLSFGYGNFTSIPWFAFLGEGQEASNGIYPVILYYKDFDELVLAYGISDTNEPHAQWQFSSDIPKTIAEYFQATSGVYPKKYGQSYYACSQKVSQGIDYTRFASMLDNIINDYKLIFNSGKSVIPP
# Target: T1, McrB-N (N-terminal DNA-binding domain …)
# Assay: pyrrolo-dC fluorescence
row,Binder,binding signal
1,"p/m (dsDNA, pyrrolo-dC at position 14 of strand 1; 5mC at position 14 of strand 2) DNA 1: ATCTCTCTATTCACCGGTATTCTCTCTTTC DNA 2: GAAAGAGAGAATACCGGTGAATAGAGAGAT",~4 fold increase of pyrrolo-dC fluorescence (not affinity)
2,"p/p (dsDNA, pyrrolo-dC at position 14 of each strand (first C of ACCGGT)) DNA 1: ATCTCTCTATTCACCGGTATTCTCTCTTTC DNA 2: GAAAGAGAGAATACCGGTGAATAGAGAGAT",2.6 fold increase of pyrrolo-dC fluorescence (not affinity)
